Patent US20250145729A1 (DENALI THERAPEUTICS, published 2025)

T1: circularly permuted human TfR apical domain (human)
T1 construct: TfR residues 326-379 stand N-terminal to 194-296, loop 297-325 deleted; also called huTfR Apical Domain
T1 chain: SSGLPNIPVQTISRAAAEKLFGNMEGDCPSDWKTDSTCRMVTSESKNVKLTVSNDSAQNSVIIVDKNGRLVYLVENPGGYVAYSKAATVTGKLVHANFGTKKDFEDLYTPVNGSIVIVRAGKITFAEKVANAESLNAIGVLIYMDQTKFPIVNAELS

T2: human CD98hc (human, UniProt P08195 109-529)
T2 construct: also called huCD98hc; CD98 heavy chain
T2 sequence: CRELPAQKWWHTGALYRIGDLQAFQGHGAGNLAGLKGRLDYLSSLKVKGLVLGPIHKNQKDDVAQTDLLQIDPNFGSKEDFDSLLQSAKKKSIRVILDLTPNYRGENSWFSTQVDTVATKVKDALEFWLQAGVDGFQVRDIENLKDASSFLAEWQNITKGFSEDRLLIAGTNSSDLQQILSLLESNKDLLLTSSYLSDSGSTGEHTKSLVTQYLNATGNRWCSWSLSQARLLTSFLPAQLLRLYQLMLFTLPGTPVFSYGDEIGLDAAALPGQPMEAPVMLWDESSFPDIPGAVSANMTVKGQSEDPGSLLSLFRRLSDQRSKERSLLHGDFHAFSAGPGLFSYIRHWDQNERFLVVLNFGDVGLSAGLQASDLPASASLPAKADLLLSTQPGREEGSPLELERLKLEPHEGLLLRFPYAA


Target: T1, circularly permuted human TfR apical …
Assay: Biacore SPR

Kd [µM]	binding result	Binder
4.4		6.5.11.5.42.2.d8 (Fc fusion) APELLGGPSVFLFPPKPKDTLMISRTPEVTCVVVDVSHEDPEVKFNWYVDGVEVHNAKTKPREEQYNSTYRVVSVLTVLHQDWLNGKEYKCKVSNKALPAPIEKTISKAKGQPREPQVYTLPPSRDELTKNQVSLTCLVKGFYPSDIAVEWFSDASKETNYKTTPPVLDSDGSFFLYSKLTVDKSRWQQGNLFACEVMHEALHNHYTYKLLSLSPGK
29		6.5.11.5.42.2.d7 (Fc fusion) APELLGGPSVFLFPPKPKDTLMISRTPEVTCVVVDVSHEDPEVKFNWYVDGVEVHNAKTKPREEQYNSTYRVVSVLTVLHQDWLNGKEYKCKVSNKALPAPIEKTISKAKGQPREPQVYTLPPSRDELTKNQVSLTCLVKGFYPSDIAVEWFSAGSKETNYKTTPPVLDSDGSFFLYSKLTVDKSRWQQGNLFACEVMHEALHNHYTYKLLSLSPGK
9.4		6.5.11.5.42.2.d14 (Fc fusion) APELLGGPSVFLFPPKPKDTLMISRTPEVTCVVVDVSHEDPEVKFNWYVDGVEVHNAKTKPREEQYNSTYRVVSVLTVLHQDWLNGKEYKCKVSNKALPAPIEKTISKAKGQPREPQVYTLPPSRDELTKNQVSLTCLVKGFYPSDIAVEWFSNGQKETNYKTTPPVLDSDGSFFLYSKLTVDKSRWQQGNLFACEVMHEALHNHYTYKLLSLSPGK
24		6.5.11.5.42.2.d6 (Fc fusion) APELLGGPSVFLFPPKPKDTLMISRTPEVTCVVVDVSHEDPEVKFNWYVDGVEVHNAKTKPREEQYNSTYRVVSVLTVLHQDWLNGKEYKCKVSNKALPAPIEKTISKAKGQPREPQVYTLPPSRDELTKNQVSLTCLVKGFYPSDIAVEWFSFGSKETNYKTTPPVLDSDGSFFLYSKLTVDKSRWQQGNLFACEVMHEALHNHYTYKLLSLSPGK
2		6.5.11.5.42.2.d9 (Fc fusion) APELLGGPSVFLFPPKPKDTLMISRTPEVTCVVVDVSHEDPEVKFNWYVDGVEVHNAKTKPREEQYNSTYRVVSVLTVLHQDWLNGKEYKCKVSNKALPAPIEKTISKAKGQPREPQVYTLPPSRDELTKNQVSLTCLVKGFYPSDIAVEWFSDGAKETNYKTTPPVLDSDGSFFLYSKLTVDKSRWQQGNLFACEVMHEALHNHYTYKLLSLSPGK

Further lines, the binder ahead of its results:

Binder	Kd [µM]	binding result
6.5.11.5.42.2.d1 (Fc fusion) APELLGGPSVFLFPPKPKDTLMISRTPEVTCVVVDVSHEDPEVKFNWYVDGVEVHNAKTKPREEQYNSTYRVVSVLTVLHQDWLNGKEYKCKVSNKALPAPIEKTISKAKGQPREPQVYTLPPSRDELTKNQVSLTCLVKGFYPSDIAVEWFSNGSKETNYKTTPPVLDSDGSFFLYSKLTVDKSRWQQGNLFACEVMHEALHNHYTYKLLSLSPGK	3.6	
6.5.11.5.42.2.d13 (Fc fusion) APELLGGPSVFLFPPKPKDTLMISRTPEVTCVVVDVSHEDPEVKFNWYVDGVEVHNAKTKPREEQYNSTYRVVSVLTVLHQDWLNGKEYKCKVSNKALPAPIEKTISKAKGQPREPQVYTLPPSRDELTKNQVSLTCLVKGFYPSDIAVEWFSDGSPENNYKTTPPVLDSDGSFFLYSKLTVDKSRWQQGNVFACEVMHEALHNHYTYKLLSLSPGK		no binding
6.5.11.5.42.2.d15 (Fc fusion) APELLGGPSVFLFPPKPKDTLMISRTPEVTCVVVDVSHEDPEVKFNWYVDGVEVHNAKTKPREEQYNSTYRVVSVLTVLHQDWLNGKEYKCKVSNKALPAPIEKTISKAKGQPREPQVYTLPPSRDELTKNQVSLTCLVKGFYPSDIAVEWFSFGQKETNYKTTPPVLDSDGSFFLYSKLTVDKSRWQQGNLFACEVMHEALHNHYTYKLLSLSPGK	2	
6.5.11.5.42.2.d10 (Fc fusion) APELLGGPSVFLFPPKPKDTLMISRTPEVTCVVVDVSHEDPEVKFNWYVDGVEVHNAKTKPREEQYNSTYRVVSVLTVLHQDWLNGKEYKCKVSNKALPAPIEKTISKAKGQPREPQVYTLPPSRDELTKNQVSLTCLVKGFYPSDIAVEWFSDGSTETNYKTTPPVLDSDGSFFLYSKLTVDKSRWQQGNLFACEVMHEALHNHYTYKLLSLSPGK	1.8	
6.5.11.5.42.2.d12 (Fc fusion) APELLGGPSVFLFPPKPKDTLMISRTPEVTCVVVDVSHEDPEVKFNWYVDGVEVHNAKTKPREEQYNSTYRVVSVLTVLHQDWLNGKEYKCKVSNKALPAPIEKTISKAKGQPREPQVYTLPPSRDELTKNQVSLTCLVKGFYPSDIAVEWFSDGSPENNYKTTPPVLDSDGSFFLYSKLTVDKSRWQQGNLFACEVMHEALHNHYTYKLLSLSPGK	4.9	
6.5.11.5.42.2.d4 (Fc fusion) APELLGGPSVFLFPPKPKDTLMISRTPEVTCVVVDVSHEDPEVKFNWYVDGVEVHNAKTKPREEQYNSTYRVVSVLTVLHQDWLNGKEYKCKVSNKALPAPIEKTISKAKGQPREPQVYTLPPSRDELTKNQVSLTCLVKGFYPSDIAVEWFSDGGKETNYKTTPPVLDSDGSFFLYSKLTVDKSRWQQGNLFACEVMHEALHNHYTYKLLSLSPGK	8.7	
6.5.11.5.42.2.d3 (Fc fusion) APELLGGPSVFLFPPKPKDTLMISRTPEVTCVVVDVSHEDPEVKFNWYVDGVEVHNAKTKPREEQYNSTYRVVSVLTVLHQDWLNGKEYKCKVSNKALPAPIEKTISKAKGQPREPQVYTLPPSRDELTKNQVSLTCLVKGFYPSDIAVEWFSDGSPETNYKTTPPVLDSDGSFFLYSKLTVDKSRWQQGNLFACEVMHEALHNHYTYKLLSLSPGK	3.5	
6.5.11.5.42.2.d11 (Fc fusion) APELLGGPSVFLFPPKPKDTLMISRTPEVTCVVVDVSHEDPEVKFNWYVDGVEVHNAKTKPREEQYNSTYRVVSVLTVLHQDWLNGKEYKCKVSNKALPAPIEKTISKAKGQPREPQVYTLPPSRDELTKNQVSLTCLVKGFYPSDIAVEWFSDGSKESNYKTTPPVLDSDGSFFLYSKLTVDKSRWQQGNLFACEVMHEALHNHYTYKLLSLSPGK	1.8	
6.5.11.5.42.2.d2 (Fc fusion) APELLGGPSVFLFPPKPKDTLMISRTPEVTCVVVDVSHEDPEVKFNWYVDGVEVHNAKTKPREEQYNSTYRVVSVLTVLHQDWLNGKEYKCKVSNKALPAPIEKTISKAKGQPREPQVYTLPPSRDELTKNQVSLTCLVKGFYPSDIAVEWFSDGQKETNYKTTPPVLDSDGSFFLYSKLTVDKSRWQQGNLFACEVMHEALHNHYTYKLLSLSPGK	3.5	

Target: T2, human CD98hc
Assay: SPR (Biacore)
Protocol: Variants that bound with measurable affinity from this round of engineering are shown in Table A12 and the corresponding human binding affinity by surface plasmon resonance (SPR) using a Biacore™ machine are shown in Table 9B. Cell binding of the clones was also tested in HeLa cells for huCD98hc binding and CHO cells as a negative control.

Kd [µM]	Binder
2	LLB2-10-8.d21 (Fc fusion, Fc part only) APELLGGPSVFLFPPKPKDTLMISRTPEVTCVVVDVSHEDPEVKFNWYVDGVEVHNAKTKPREEQYNSTYRVVSVLTVLHQDWLNGKEYKCKVSNKALPAPIEKTISKAKGQPREPQVYTLPPSRDELTKNQVSLTCLVKGFYPSDIAVLWSSRFVLENNYKTTPPVLDSDGSFFLYSKLTVDKSRWQQGNVFACNVYHEALHNHYTFKNLALSPGK
0.67	LLB2-10-8.d25 (Fc fusion, Fc part only) APELLGGPSVFLFPPKPKDTLMISRTPEVTCVVVDVSHEDPEVKFNWYVDGVEVHNAKTKPREEQYNSTYRVVSVLTVLHQDWLNGKEYKCKVSNKALPAPIEKTISKAKGQPREPQVYTLPPSRDELTKNQVSLTCLVKGFYPSDIAVLWNSRFQLENNYKTTPPVLDSDGSFFLYSKLTVDKSRWQQGNVFACNVYHEALHNHYTFKNLALSPGK
2.6	LLB2-10-8.d24 (Fc fusion, Fc part only) APELLGGPSVFLFPPKPKDTLMISRTPEVTCVVVDVSHEDPEVKFNWYVDGVEVHNAKTKPREEQYNSTYRVVSVLTVLHQDWLNGKEYKCKVSNKALPAPIEKTISKAKGQPREPQVYTLPPSRDELTKNQVSLTCLVKGFYPSDIAVLWNSRYVLENNYKTTPPVLDSDGSFFLYSKLTVDKSRWQQGNVFACNVYHEALHNHYTFKNLALSPGK

More lines, now with the values behind:

Binder	Kd [µM]
LLB2-10-8.d20 (Fc fusion, Fc part only) APELLGGPSVFLFPPKPKDTLMISRTPEVTCVVVDVSHEDPEVKFNWYVDGVEVHNAKTKPREEQYNSTYRVVSVLTVLHQDWLNGKEYKCKVSNKALPAPIEKTISKAKGQPREPQVYTLPPSRDELTKNQVSLTCLVKGFYPSDIAVLWSSHYELENNYKTTPPVLDSDGSFFLYSKLTVDKSRWQQGNVFACNVYHEALHNHYTFKNLALSPGK	2.3
LLB2-10-8.d22 (Fc fusion, Fc part only) APELLGGPSVFLFPPKPKDTLMISRTPEVTCVVVDVSHEDPEVKFNWYVDGVEVHNAKTKPREEQYNSTYRVVSVLTVLHQDWLNGKEYKCKVSNKALPAPIEKTISKAKGQPREPQVYTLPPSRDELTKNQVSLTCLVKGFYPSDIAVLWSSKFELENNYKTTPPVLDSDGSFFLYSKLTVDKSRWQQGNVFACNVYHEALHNHYTFKNLALSPGK	5.2
LLB2-10-8.d23 (Fc fusion, Fc part only) APELLGGPSVFLFPPKPKDTLMISRTPEVTCVVVDVSHEDPEVKFNWYVDGVEVHNAKTKPREEQYNSTYRVVSVLTVLHQDWLNGKEYKCKVSNKALPAPIEKTISKAKGQPREPQVYTLPPSRDELTKNQVSLTCLVKGFYPSDIAVLWSSQYELENNYKTTPPVLDSDGSFFLYSKLTVDKSRWQQGNVFACNVYHEALHNHYTFKNLALSPGK	1.8
